Assay [1] concerns the target PrP^C, nonpathogenic (cellular) form of the human prion protein (in normal human brain homogenate and human plasma) (human) (UniProt P04156).
Assay [2] shares this target. The source holds these as a separate data set.

Take mAb SAF32 (antibody): the LU in assay [1] was determined as 888 LU.
In turn, 3F4 antibody returned an ave (RLU), Nomal BH in assay [2] of 14.6 RLU.

The record behind these values is patent US20120027677A1.
